Columns and labels:
[1] = target: MbTEC^PH (R28E) (Monosiga brevicollis); assay: FP; conditions: domain or fragment
[2] = target: MbTEC^PH (isolated PH domain of Monosiga brevicollis TEC), wild type, labeled with Atto488 (Monosiga brevicollis); assay: fluorescence polarisation
[3] = target: MbTEC^PH (R28E) (Monosiga brevicollis); assay: fluorescence polarisation

Row | Substance | Kd [1] | Kd [2] | fold weakening against wild-type MbTEC^PH [3]
1 | MbTEC^32K (SH3-SH2-kinase module of Monosiga brevicollis TEC), wild type | 22.4 µM |  | 
2 | MbTEC^32K (SH3-SH2-kinase module of Monosiga brevicollis TEC), wild type (domain or fragment) |  | 4 µM | 5 fold

From paper doi:10.1101/2025.05.22.653117
